# Data reported in the supplement of paper PMC12042874.
# ± gives the uncertainty stated by the source.
# Assay: amyloid nucleation score (Sup35N fusion, yeast selection) (log enrichment); library NNK1; higher = more nucleation; inactive = no reads after selection
# In short: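 On medium lacking adenine and uracil, psi-negative yeast expressing peptides of 20 random codons fused to Sup35N were grown 7 days at 30°C after a 24-hour induction with 100 μM copper sulfate. Illumina sequencing of input and output plasmid inserts gave the reads, and sequences under 100 input reads were excluded. The nucleation score is the DiMSum log enrichment of output over input reads, centred on the mode score of non-aggregating sequences.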
row,Substance,amyloid nucleation score
1,FVSSSKLIGCLVRHQKMANR,0.258 ± 0.59
2,NIVFL,0.021 ± 0.55
3,DWRNAFLLCYANRNVQTCMS,-0.673 ± 0.3
4,SLCHAFYSVNNLAFCHSFTP,6.539 ± 0.061
5,GRSFGQSGRISRAGNVGIIC,-0.266 ± 0.38
6,IGCSCNPYGTFWG,5.93 ± 0.066
7,PFNGSLFYYVSWVKTNYGYY,0.225 ± 0.93
8,VLEDDSDWGSRFVRRGYIKT,1.15 ± 0.61
9,KSSSV,-0.352 ± 0.6
10,SIRTVSLLR,-0.859 ± 0.42
11,WNLNKYSFILALDGSYYVLN,3.23 ± 0.24
12,RCSTPRCSPL,-0.237 ± 0.62
13,GLWIRFIAVTSSSVEIRANS,-0.776 ± 0.62
14,HCSFSWGYRWLGWTTKSGNM,1.31 ± 0.4
15,QVTTSPQ,-0.387 ± 0.56
16,QTLCCETRWSGENRSDAFRV,-0.596 ± 0.79
17,SKCVSIMAS,inactive
18,WGSYS,0.118 ± 1.1
19,RIENNFLSTSFVFSCLIGNM,5.88 ± 0.07
20,GPLFYNTM,0.159 ± 1.2
21,LKNSVSFMADGS,-0.327 ± 0.38
22,PTLMLAGG,-0.33 ± 0.46
23,TRWLILWNLAGPTGCYFRIL,0.063 ± 0.63
24,TLMDQSLYIWGSN,-0.274 ± 0.63
25,VPILIVFQQVADASRIRIMR,4.77 ± 0.059

row,Substance,amyloid nucleation score
1,ALSLVISCSGSWRKGRRFLS,-0.53 ± 0.64
2,ATRDYVSGANDGIGPQMMWV,0.324 ± 0.49
3,NDRFFGSKYCGVIVLSISDL,5.95 ± 0.061
4,GMARHEMRGGMHSTLLRLTA,0.735 ± 0.91
5,SFRFNGGTFVHSSKTKP,0.441 ± 0.3
6,LIEVWYVLIQGECDPWVTHG,1.07 ± 0.97
7,TWRFVFCFFWTRGPRLLICA,-0.768 ± 0.37
8,TVNVFFLQACSRSC,7.73 ± 0.06
9,DGSVGFLMLEVCLWHSFLAC,inactive
10,VLLYHNEDHWFCSRYYSSVS,inactive
11,GFPLQSKDTARNIGTQFLEW,-0.003 ± 0.4
12,RTIHAIERDDCLRGNSGKNN,1.12 ± 0.57
13,AGDTGFTHTYSCWIKQWFVF,0.705 ± 0.47
14,TLRLKWSWEADCDI,2.49 ± 0.12
15,CLFSWD,0.118 ± 0.3
16,SRWTQS,0.201 ± 0.88
17,ISNFVGTTMIIQGSVNTVYK,6.962 ± 0.055
18,GGLILYKKNREFSSLQFSCV,-0.523 ± 0.46
19,QVLDTGVVTDWSVIPFGRSY,0.483 ± 0.65
20,SNTDYCVSVPVLTVAFSVWA,-0.343 ± 0.51
21,YSGCRTPDTVSVVTSTHAEY,inactive
22,SASAISTPGGCYDGYLFDSQ,-0.457 ± 0.61
23,GMVLEWWIFMFGVPFSSDRA,-0.122 ± 0.74
24,IRGCTAC,0.958 ± 0.76
25,VGDVTGF,0.154 ± 0.95

row,Substance,amyloid nucleation score
1,CTNATVPASSTERV,1.55 ± 0.5
2,GFSWSNITKCGWACGSDGMK,0.676 ± 0.45
3,MKVRISEILEILKVSFKNFP,-1.21 ± 1.4
4,IKDRFLEALCVKCGLSYTQG,-0.035 ± 0.26
5,MRCPRLASSDNDPCLLSRVS,0.357 ± 0.39
6,FYRASKDCLAKVRRVGC,0.482 ± 0.59
7,FMSYD,0.362 ± 0.79
8,IQAKKDPTAESQRGCC,0.197 ± 0.51
9,HQKACCSRLMNCGYNSAKWR,-0.612 ± 0.89
10,FMRYNCNCKWDYFFRDCPAG,-0.357 ± 0.36
11,ETNLFVLNVNNVLVVFWCPP,6.938 ± 0.046
12,FLSTCGCFRKLGWVMCECLG,-0.19 ± 0.47
13,GVNFFGCHCVHN,-0.113 ± 0.41
14,KKVFFHKRVLSDARCKPVKS,-0.567 ± 0.41
15,HLYMDSSILRLVEYTWCFKV,0.085 ± 0.96
16,SFRCDVD,-0.217 ± 0.55
17,LYVDYQCIGSFVTIYKYITP,0.889 ± 0.27
18,NYVPIWSGA,inactive
19,VYMGFVCEIVVNKEKRVGTF,0.008 ± 0.84
20,SSEDAVRLLLIVIFFLTFKF,0.778 ± 0.49
21,FKEYQRNA,-1.04 ± 2.7
22,YRGTLDNKMGFYIGYHHDRS,-0.322 ± 0.56
23,RLRITVTISATAGMMRRLHR,2.39 ± 0.14
24,SPPTMIETGTHKASSH,0.199 ± 0.57
25,SDDLRMHTHGGGYSGFWKGY,inactive

row,Substance,amyloid nucleation score
1,NVNWKWVGNTLVVSIMVEAN,inactive
2,ELSSLGTCNCFHIRVSWGYM,0.99 ± 0.37
3,VIHYSGLSMVAVQ,-0.379 ± 0.49
4,SEDVLIPAGRCPL,0.845 ± 0.7
5,GNGVLAVTVSFAGTSLSLRF,-0.047 ± 1.4
6,LMLGCGCECHVSSVSQKENM,0.301 ± 1.1
7,KFMVNVIV,1.24 ± 0.22
8,RIGETASYTL,-0.09 ± 0.47
9,SKVIESDSVCYILHRFKNQC,1.09 ± 0.17
10,FVVSDTGKVKWGMAQ,2.68 ± 0.14
11,SRLAKLSFKQGNTTVCTKSS,-0.742 ± 0.62
12,SQAMTPNGVTSLLFTN,-0.236 ± 0.59
13,LDVYCH,inactive
14,YSCGSIPYIRLVLKLIGYVI,-0.016 ± 0.39
15,FFFNCMRWSCMKVDHTGFVG,-0.255 ± 0.47
16,SSMYDSCSLRCLGQVVR,0.711 ± 0.19
17,DFVETEFRLRRD,inactive
18,LDEVHESSIRSGNY,3.12 ± 0.17
19,RTGITNTKPTQWSYNQSLSS,-0.291 ± 0.52
20,IRHRCSLMICFPAHTRGSAQ,-0.219 ± 0.68
21,MKGARFARS,0.91 ± 0.8
22,ESQLVTAYEH,0.324 ± 1.1
23,FRHPMTDDDTPWKAARFVE,-1.6 ± 2.4
24,YSIFREW,-0.817 ± 0.53
25,NNSYFMCNTLRRVLMGLLLG,1.11 ± 0.65

row,Substance,amyloid nucleation score
1,IIQSSTGLWFIIRKVDATYV,0.812 ± 0.28
2,ITYTGASR,0.295 ± 0.57
3,FCHVRTL,-0.97 ± 1.7
4,NSYKCIWMSLGVV,-0.897 ± 0.38
5,ECMRTRFMGNYNGPGISILY,inactive
6,HYVRNPARD,inactive
7,NFPFMFKCSPGNVHLVDIR,-0.535 ± 1.7
8,MRDLALLAEVLVTD,0.295 ± 0.4
9,NMDGLAPISGSFYSRSGNFI,0.964 ± 0.61
10,IVSNAIIPTGEG,0.283 ± 0.71
11,WNRRGA,-0.054 ± 0.35
12,SDDLFVNFSMSVWFLKVSLR,0.515 ± 0.34
13,LCLFFGLHLWVWMRKACCY,-0.205 ± 0.31
14,FATYWVHDMAWRMSGVQMSV,0.307 ± 0.84
15,NGYFYTTYASDVPRRYVPYL,0.387 ± 0.33
16,FNMNHGMVSVRVEDRISRAC,0.579 ± 0.28
17,ISTSLSTGLGKLRESWLTYH,inactive
18,PLHWS,0.416 ± 0.3
19,GGQITYPMDLKVGRLCEDAL,inactive
20,VWCRNAVDTMLIPMCTTPGY,0.372 ± 0.6
21,RLNDNRYSYVVVS,-0.127 ± 0.64
22,WFSAASGIMKEFSVG,-0.277 ± 0.36
23,VRMIT,0.388 ± 0.64
24,FLQEVITDLKSVW,3.08 ± 0.12
25,IIAKNTDKVSCTVRVSFL,-0.894 ± 1.4

row,Substance,amyloid nucleation score
1,SNSKK,0.009 ± 0.25
2,SPGAWKHSNPDGDCNGLA,0.525 ± 0.49
3,NIAYQTDSGVRLRFVTDSRG,inactive
4,STEVGYSFCHGGMSRTVCMC,1.45 ± 0.68
5,MVRYKRRSLELFMIARYSCC,0.599 ± 1.2
6,YYQRTPSTDRSLWFTGWNVN,-0.424 ± 0.19
7,DIKCLLR,0.238 ± 0.36
8,IFSIGW,0.816 ± 0.45
9,SLACRVGKYNHSYLSSLV,0.583 ± 0.4
10,QLTLSNWLKTSAKA,2.5 ± 0.32
11,DNLNYEMHVLWMCNL,4.82 ± 0.056
12,NSSSIQVANRARDV,inactive
13,VLIINFLPVWWKTYLSMMIR,-0.256 ± 0.45
14,ERYSMLDGFGSDLNWIIYNN,0.978 ± 0.71
15,ESFILVFGGCCNWFGCVYLM,6.537 ± 0.06
16,RNFFDLCGTSKRRMRIS,-0.15 ± 0.47
17,TIIFYVFQCSMLRFIQMV,inactive
18,GCQLLYAKHIQSIMSQRPKN,0.374 ± 0.65
19,CYDQKILLLLISVTYVRTSD,-0.34 ± 1
20,RTRAGKYMYVSSQPTCSILI,0.312 ± 0.56
21,FCCMGDMYFCSDFQSVSLFL,8.454 ± 0.065
22,TYTCPVGNWVRMEGDLYFLA,-0.847 ± 1.3
23,VVLNIR,-0.232 ± 0.52
24,VRDYAGPFSFPYRSLRSEWQ,0.193 ± 0.56
25,NFLIANRSLDAVLMVQLPFV,-0.344 ± 0.98

row,Substance,amyloid nucleation score
1,SCFVSSSAIPWVIHSKFDLG,0.143 ± 0.55
2,PIVMCFFGKV,-0.201 ± 0.41
3,EKWGGGVM,-0.08 ± 0.58
4,TWIEDCSYYEMYTGPERTLT,-0.282 ± 0.46
5,MTSVADECSLYSWAYSWLMS,1.84 ± 0.57
6,SAVQFG,-0.539 ± 0.54
7,TNCGITFVFTPIPRATTWSN,5.37 ± 0.083
8,VALDSSLHTSVYRIVSLSIG,-0.159 ± 0.52
9,SYWLWTVNTMSLVPFRASCR,1.05 ± 0.36
10,DSEQGRLIYICFRVTTIRAL,-0.062 ± 0.36
11,TAGATI,0.108 ± 0.25
12,NFDYHTTTVGMELWSLGFSS,-0.585 ± 0.51
13,SSERYLASQPNSSPSPSIPT,-0.421 ± 1.2
14,VKSNFLHSGKIGYTSAVGFG,-1.16 ± 1.9
15,KCFAFRSLAHIASTCGWCLN,2.4 ± 0.31
16,MRRPVKCYGVVTL,-0.299 ± 1.1
17,YSVWVYRLMRYELNVTFCR,0.093 ± 0.2
18,RNIVIMYRNCLVKLNLETGS,6.77 ± 0.053
19,SNAIDRAHPYRFGFCVNDVQ,-0.279 ± 0.47
20,VLFIWTLF,0.341 ± 0.26
21,ALQTPFSKNMEYCCNQ,0.222 ± 0.41
22,LFTKNSIGGVFPCPPETARY,-1.18 ± 2.4
23,LIYAREDGEALWEAIRPTEK,-0.047 ± 0.48
